{"source": "the RNAGym collection of RNA variant scans (doi:10.7554/elife.80360)", "parents": {"B1": {"name": "HDV Ribozyme (parent)", "chain": "GGCCGGCAUGGUCCCAGCCUCCUCGCUGGCGCCGGCUGGGCAACAUUCCGAGGGGACCGUCCCCUCGGUAAUGGCGAAUGGGACCCA"}}, "data": [{"variants_of": "B1", "assay": "self-cleavage, relative activity (ratio to wild type); higher = more cleavage; co-transcriptional", "values": [{"variant": "C4U C22U", "self-cleavage": 0.259}, {"variant": "C3G C49G", "self-cleavage": 0.523}, {"variant": "G5A C14G", "self-cleavage": 0.0639}, {"variant": "G5A C14A", "self-cleavage": 0}, {"variant": "C3G G74U", "self-cleavage": 0.189}, {"variant": "C3G G74C", "self-cleavage": 0.0779}, {"variant": "C3G G11A", "self-cleavage": 0.144}, {"variant": "C3G G11C", "self-cleavage": 0.225}, {"variant": "C4U C86U", "self-cleavage": 0.889}, {"variant": "C4G G11U", "self-cleavage": 0.0767}, {"variant": "C4G G67A", "self-cleavage": 0.437}, {"variant": "C4G G67U", "self-cleavage": 0.227}, {"variant": "C3U C86A", "self-cleavage": 0.923}, {"variant": "C3U C86U", "self-cleavage": 0.718}, {"variant": "C3U A16U", "self-cleavage": 0.831}, {"variant": "C4G C33U", "self-cleavage": 0.123}, {"variant": "C3G U79A", "self-cleavage": 0.491}, {"variant": "C4U C32A", "self-cleavage": 0.0906}, {"variant": "C3U U69C", "self-cleavage": 0.616}, {"variant": "C3U G53A", "self-cleavage": 1}, {"variant": "C4A C36U", "self-cleavage": 0}, {"variant": "C3G G50C", "self-cleavage": 0.475}, {"variant": "C3U C14U", "self-cleavage": 0.758}, {"variant": "C3U C14G", "self-cleavage": 0.739}, {"variant": "C4G G25U", "self-cleavage": 0.109}, {"variant": "C3U A42G", "self-cleavage": 0.483}, {"variant": "C3U A42U", "self-cleavage": 0.339}, {"variant": "C4U A71G", "self-cleavage": 0.643}, {"variant": "C3G C62U", "self-cleavage": 0.822}, {"variant": "C3G U69G", "self-cleavage": 0.658}, {"variant": "C4A C86A", "self-cleavage": 0.185}, {"variant": "C3U A87C", "self-cleavage": 0.759}, {"variant": "G5A", "self-cleavage": 0.199}, {"variant": "C4A A78C", "self-cleavage": 0.0308}, {"variant": "C3U G39U", "self-cleavage": 0.385}, {"variant": "C4U C7U", "self-cleavage": 0.457}, {"variant": "C4U C7A", "self-cleavage": 0.104}, {"variant": "G5A G6A", "self-cleavage": 0}, {"variant": "C4G C44U", "self-cleavage": 0.141}, {"variant": "C4A A43G", "self-cleavage": 0.158}, {"variant": "C4A A43U", "self-cleavage": 0.0707}, {"variant": "C3U C64A", "self-cleavage": 0.518}, {"variant": "C3U C4A", "self-cleavage": 0.0817}, {"variant": "G5A G28A", "self-cleavage": 0.0378}, {"variant": "G5A G28C", "self-cleavage": 0.104}, {"variant": "C4U C62A", "self-cleavage": 1.06}, {"variant": "C4A G67C", "self-cleavage": 0.348}, {"variant": "C4A G67A", "self-cleavage": 0.149}, {"variant": "C3U G82A", "self-cleavage": 0.283}, {"variant": "C3G G59C", "self-cleavage": 0.903}, {"variant": "C4G C36G", "self-cleavage": 0.0268}, {"variant": "C4G C36U", "self-cleavage": 0.0504}, {"variant": "C3U A45C", "self-cleavage": 0.43}, {"variant": "C3U A45G", "self-cleavage": 0.607}, {"variant": "C4A G40C", "self-cleavage": 0.0511}, {"variant": "C3U A56U", "self-cleavage": 0.861}, {"variant": "C4A C18U", "self-cleavage": 0.119}, {"variant": "G5A A87C", "self-cleavage": 0.124}, {"variant": "C3U C13U", "self-cleavage": 0.509}, {"variant": "C3U C13G", "self-cleavage": 0.179}, {"variant": "G5A C19G", "self-cleavage": 0.0898}, {"variant": "C4U A78C", "self-cleavage": 0.0378}, {"variant": "C4G U9A", "self-cleavage": 0.534}, {"variant": "G5A A16G", "self-cleavage": 0.35}, {"variant": "C4A A87U", "self-cleavage": 0.39}, {"variant": "C4A A87G", "self-cleavage": 0.233}, {"variant": "C4A A87C", "self-cleavage": 0.21}, {"variant": "C4A C58A", "self-cleavage": 0.348}, {"variant": "C4G C62A", "self-cleavage": 0.446}, {"variant": "C4G C62U", "self-cleavage": 0.388}, {"variant": "C4A G29C", "self-cleavage": 0.0369}, {"variant": "C4G A56U", "self-cleavage": 0.462}, {"variant": "C4G A56C", "self-cleavage": 0.32}, {"variant": "C4G G40A", "self-cleavage": 0.237}, {"variant": "C3U G54U", "self-cleavage": 0.732}, {"variant": "C4A U20G", "self-cleavage": 0}, {"variant": "C4A U20A", "self-cleavage": 0.0386}, {"variant": "C4U C84G", "self-cleavage": 0.19}, {"variant": "C4U G81C", "self-cleavage": 0.135}, {"variant": "C3U G28U", "self-cleavage": 0.0707}, {"variant": "C4A G25U", "self-cleavage": 0.0252}, {"variant": "G5A C24A", "self-cleavage": 0.0978}, {"variant": "C4G A43U", "self-cleavage": 0.0415}]}]}
